Data on one molecule can be found in patent publication US20040077542A1 (University of Texas, published 2004).

The assay concerns the target T1, GST-fusion protein of the second BIR (baculoviral IAP repeat) motif of XIAP (UniProt P98170 124-240).
T1 construct: also called recombinant IAP fragment; BIR2; not shown: glutathione S-transferase (GST) fusion partner; order of GST and BIR2 not
The assay is described as follows: GST pull-down, radiolabeled peptide on GST-BIR2 glutathione resin (Example 9).

T1 sequence (P98170 124-240): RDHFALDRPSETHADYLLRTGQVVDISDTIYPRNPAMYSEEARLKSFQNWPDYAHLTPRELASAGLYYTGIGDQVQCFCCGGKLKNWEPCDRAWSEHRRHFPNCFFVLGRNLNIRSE

Take H-KQAIPVA-OH (also called negative control Smac-7R) [Smac-7R: NH2-KQAIPVA-COOH]: the binding result is listed as “no binding”.
